# Data reported in IntAct's records for PubMed 22187462.
# B1: Catenin beta-1 (Homo sapiens), P35222 (parent)
# chain: MATQADLMELDMAMEPDRKAAVSHWQQQSYLDSGIHSGATTTAPSLSGKGNPEEEDVDTSQVLYEWEQGFSQSFTQEQVADIDGQYAMTRAQRVRAAMFPETLDEGMQIPSTQFDAAHPTNVQRLAEPSQMLKHAVVNLINYQDDAELATRAIPELTKLLNDEDQVVVNKAAVMVHQLSKKEASRHAIMRSPQMVSAIVRTMQNTNDVETARCTAGTLHNLSHHREGLLAIFKSGGIPALVKMLGSPVDSVLFYAITTLHNLLLHQEGAKMAVRLAGGLQKMVALLNKTNVKFLAITTDCLQILAYGNQESKLIILASGGPQALVNIMRTYTYEKLLWTTSRVLKVLSVCSSNKPAIVEAGGMQALGLHLTDPSQRLVQNCLWTLRNLSDAATKQEGMEGLLGTLVQLLGSDDINVVTCAAGILSNLTCNNYKNKMMVCQVGGIEALVRTVLRAGDREDITEPAICALRHLTSRHQEAEMAQNAVRLHYGLPVVVKLLHPPSHWPLIKATVGLIRNLALCPANHAPLREQGAIPRLVQLLVRAHQDTQRRTSMGGTQQQFVEGVRMEEIVEGCTGALHILARDVHNRIVIRGLNTIPLFVQLLYSPIENIQRVAAGVLCELAQDKEAAEAIEAEGATAPLTELLHSRNEGVATYAAAVLFRMSEDKPQDYKKRLSVELTSSLFRTEPMAWNETADLGLDIGAQGEPLGYRQDDPSYRSFHSGGYGQDALGMDPMMEHEMGGHHPGADYPVDGLPDLGHAQDLMDGLPPGDSNQLAWFDTDL
# Variants of: B1
# Details: with andr_human AR
row,effect of a mutation on the interaction,Variant
1,disrupting interaction strength,W383A
2,disrupting interaction strength,K345A

# Continued, variant first:
row,Variant,effect of a mutation on the interaction
1,Y306A,disrupting interaction strength
2,Y306A;K345A;W383A,disrupting interaction strength

# Variants of: B1
# Details: with NR5A2, O00482-1
# Chain of NR5A2, O00482-1 (O00482 whole entry): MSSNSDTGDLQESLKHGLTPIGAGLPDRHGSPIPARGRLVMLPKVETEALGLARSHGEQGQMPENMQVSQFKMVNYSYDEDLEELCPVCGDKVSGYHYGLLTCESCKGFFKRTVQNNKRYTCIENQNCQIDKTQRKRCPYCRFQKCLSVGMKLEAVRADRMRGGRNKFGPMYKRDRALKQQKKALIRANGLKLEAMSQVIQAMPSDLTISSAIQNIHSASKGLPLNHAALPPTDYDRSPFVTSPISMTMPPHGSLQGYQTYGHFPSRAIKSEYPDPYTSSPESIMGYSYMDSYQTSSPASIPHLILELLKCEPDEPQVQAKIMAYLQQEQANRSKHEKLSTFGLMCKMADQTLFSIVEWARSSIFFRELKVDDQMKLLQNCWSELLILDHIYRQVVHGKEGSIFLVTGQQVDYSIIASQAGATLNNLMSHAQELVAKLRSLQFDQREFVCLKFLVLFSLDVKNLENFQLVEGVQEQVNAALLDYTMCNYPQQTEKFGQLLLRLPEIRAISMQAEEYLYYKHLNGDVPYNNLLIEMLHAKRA
row,effect of a mutation on the interaction,Variant
1,disrupting interaction strength,Y306A;K345A;W383A
